{"source": "patent US20240116985A1", "about": "(published 2024)", "key": {"[1]": {"biological_target": "T1, full-length beta-Catenin (Uniprot ID P35222) (Homo sapiens (Human), UniProt P35222 1-781)", "T1 construct": "The FP protocol says full-length beta-Catenin (Uniprot ID P35222); also called bCat; B-Catenin", "T1 sequence": "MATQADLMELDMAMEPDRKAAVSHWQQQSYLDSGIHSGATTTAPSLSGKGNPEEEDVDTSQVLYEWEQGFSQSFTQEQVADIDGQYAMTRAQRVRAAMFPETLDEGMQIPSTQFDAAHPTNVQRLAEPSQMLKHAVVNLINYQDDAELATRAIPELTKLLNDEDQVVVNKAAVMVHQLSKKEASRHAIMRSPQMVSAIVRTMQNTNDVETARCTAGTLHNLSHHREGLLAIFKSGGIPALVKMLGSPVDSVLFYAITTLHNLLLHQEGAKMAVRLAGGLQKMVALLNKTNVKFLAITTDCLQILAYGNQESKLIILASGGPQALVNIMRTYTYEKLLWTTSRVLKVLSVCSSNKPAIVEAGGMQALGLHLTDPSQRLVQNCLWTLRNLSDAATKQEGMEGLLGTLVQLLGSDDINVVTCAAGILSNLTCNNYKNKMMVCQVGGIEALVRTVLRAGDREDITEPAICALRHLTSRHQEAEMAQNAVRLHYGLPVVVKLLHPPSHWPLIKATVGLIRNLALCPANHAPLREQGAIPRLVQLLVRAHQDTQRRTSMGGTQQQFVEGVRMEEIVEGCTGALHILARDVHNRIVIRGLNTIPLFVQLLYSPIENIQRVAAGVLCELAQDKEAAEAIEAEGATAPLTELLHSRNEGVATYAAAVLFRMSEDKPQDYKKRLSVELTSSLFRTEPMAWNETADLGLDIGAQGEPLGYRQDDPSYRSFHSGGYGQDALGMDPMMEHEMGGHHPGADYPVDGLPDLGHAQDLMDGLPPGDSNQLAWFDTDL", "experiment": "fluorescence polarization competition; full-length beta-catenin, competitor 5FAM-TCF4(10-53) probe", "method_in_brief": "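Incubate 60 minutes at 20° C. away from light, then read polarization in duplicate. Fit to 1:1 binding with hill slope.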"}, "[2]": {"biological_target": "T2, B-cat-Halo (beta-catenin HaloTag NanoBRET construct expressed in HEK293 cells) (UniProt P35222 1-781)", "T2 sequence (looked up)": "T1 sequence", "experiment": "cell-based or functional assay"}, "[3]": {"biological_target": "T3, beta-catenin in DLD1 TCF/LEF luciferase reporter cells (UniProt P35222 1-781)", "T3 sequence (looked up)": "T1 sequence", "experiment": "cell-based or functional assay"}, "[4]": {"biological_target": "T4, beta-catenin in DLD1 TCF/LEF luciferase reporter cells (UniProt P35222 2-781)", "T4 sequence (looked up)": "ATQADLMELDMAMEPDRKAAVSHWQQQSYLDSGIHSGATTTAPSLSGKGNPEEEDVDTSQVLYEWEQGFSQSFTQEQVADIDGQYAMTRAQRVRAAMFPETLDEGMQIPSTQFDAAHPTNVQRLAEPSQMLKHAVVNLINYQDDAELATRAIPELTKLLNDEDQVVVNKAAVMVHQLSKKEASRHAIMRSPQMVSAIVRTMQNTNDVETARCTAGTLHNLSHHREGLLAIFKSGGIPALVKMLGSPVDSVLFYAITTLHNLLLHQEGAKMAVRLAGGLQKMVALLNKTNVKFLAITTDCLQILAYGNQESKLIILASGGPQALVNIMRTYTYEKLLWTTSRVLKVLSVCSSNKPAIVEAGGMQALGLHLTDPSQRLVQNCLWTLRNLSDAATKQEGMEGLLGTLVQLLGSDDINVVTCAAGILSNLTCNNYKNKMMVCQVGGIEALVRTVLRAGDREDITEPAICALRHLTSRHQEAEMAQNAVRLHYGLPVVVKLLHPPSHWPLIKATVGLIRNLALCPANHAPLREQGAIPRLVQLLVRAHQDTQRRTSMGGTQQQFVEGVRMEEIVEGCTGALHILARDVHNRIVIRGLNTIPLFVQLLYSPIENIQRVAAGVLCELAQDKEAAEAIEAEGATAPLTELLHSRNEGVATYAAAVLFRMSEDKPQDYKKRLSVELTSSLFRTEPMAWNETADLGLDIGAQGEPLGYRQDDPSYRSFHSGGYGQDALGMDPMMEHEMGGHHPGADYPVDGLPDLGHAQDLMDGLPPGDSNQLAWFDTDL", "experiment": "cell-based or functional assay"}, "[5]": {"biological_target": "T5, B-cat-Halo (UniProt P35222 1-781)", "T5 sequence (looked up)": "T1 sequence", "experiment": "cell-based or functional assay"}, "[6]": {"biological_target": "T6, B-cat-Halo (beta-catenin HaloTag NanoBRET construct expressed in HEK293 cells) (Homo sapiens (Human), UniProt P35222 1-781)", "T6 sequence": "T1 sequence", "experiment": "cell-based or functional assay"}, "[7]": {"biological_target": "T7, beta-catenin in DLD1 TCF/LEF luciferase reporter cells (Homo sapiens (Human), UniProt P35222 2-781)", "T7 sequence": "T4 sequence (looked up)", "experiment": "cell-based or functional assay"}, "[8]": {"biological_target": "T8, B-cat-Halo (UniProt P35222 1-781)", "T8 sequence (looked up)": "T1 sequence", "experiment": "cell-based or functional assay", "remark": "listed apart in the source"}, "[9]": {"biological_target": "T9, beta-catenin (in DLD1 TCF/LEF luciferase reporter cells) (UniProt P35222 1-781)", "T9 sequence (looked up)": "T1 sequence", "experiment": "cell-based or functional assay"}, "[10]": {"biological_target": "T10, B-cat-Halo (UniProt P35222 1-781)", "T10 sequence (looked up)": "T1 sequence", "experiment": "cell-based or functional assay", "remark": "listed apart in the source"}, "[11]": {"biological_target": "T11, beta-catenin (endogenous, DLD1 TCF/LEF luciferase reporter cells) (UniProt P35222 1-781)", "T11 sequence (looked up)": "T1 sequence", "experiment": "cell-based or functional assay"}, "[12]": {"biological_target": "T12, beta-catenin in DLD1 TCF/LEF luciferase reporter cells (UniProt P35222 1-781)", "T12 sequence (looked up)": "T1 sequence", "experiment": "cell-based or functional assay", "remark": "listed apart in the source"}}, "note": "Starred links: 1 amine or outer side, 2 acyl side, 3 side chain; linkers in the order of their positions; H or OH if unused. Positions of bridges follow the written chain, without caps; N, C: chain ends. Non-standard residues stand in square brackets, D forms with d. Primed or numbered codes have the meaning given here. *: point of attachment. PyrS2″ = (S)-3-amino-1-((pent-4-en-1-yloxy)carbonyl)pyrrolidine-3-carboxylic acid (stapling residue), C=CCCCOC(=O)N1CC[C@@](N[*:1])(C(=O)[*:2])C1; B5(16) = 2-amino-2-(pent-4-en-1-yl)hept-6-enoic acid = 2,2-bis(4-pentenyl)glycine (stitching residue), C=CCCCC(CCCC=C)(N[*:1])C(=O)[*:2]; B5(4) = 2,2-bis(4-pentenyl)glycine = 2-amino-2-(pent-4-en-1-yl)hept-6-enoic acid (stitching residue), C=CCCCC(CCCC=C)(N[*:1])C(=O)[*:2]; PyrS2 = (S)-3-amino-1-((pent-4-en-1-yloxy)carbonyl)pyrrolidine-3-carboxylic acid, C=CCCCOC(=O)N1CC[C@@](N[*:1])(C(=O)[*:2])C1; MePpzAsn = (S)-2-amino-4-(4-methylpiperazin-1-yl)-4-oxobutanoic acid, CN1CCN(C(=O)C[C@H](N[*:1])C(=O)[*:2])CC1; EtGA = (S)-2-amino-3-((carboxymethyl)(ethyl)amino)propanoic acid, CCN(CC(=O)[*:3])C[C@H](N[*:1])C(=O)[*:2]; B5(3) = 2,2-bis(4-pentenyl)glycine (stitching residue), C=CCCCC(CCCC=C)(N[*:1])C(=O)[*:2]; 2COOHF″ = O=C([C@H](Cc1ccccc1C(=O)[*:3])N[*:1])[*:2]; Phe(3-COOH) = N[C@@H](Cc1cccc(C(=O)O)c1)C(=O)O; 2F3MeF = Cc1cccc(C[C@H](N[*:1])C(=O)[*:2])c1F; Phe(2-Cl) = N[C@@H](Cc1ccccc1Cl)C(=O)O; Bta = N[C@@H](Cc1csc2ccccc12)C(=O)O; αAllylPro = C=CC[C@@]1(C(=O)O)CCCN1; tBuAla = CC(C)(C)C[C@H](N)C(=O)O; 3Thi = N[C@@H](Cc1ccsc1)C(=O)O; Thr(ol) = C[C@@H](O)[C@H](N)CO; PyrS2(4) = not defined here; Alaol = C[C@@H](CO)N*"}
{"binder": "Ac-[αAllylPro]DF[B5(4)]DDAAFS[PyrS2][Phe(2-Cl)][Bta]S-NH2 (staple 1-4, 4-11)", "note": "[I-1051]", "values": [{"measurement": "EC50", "setting": "[1]", "result": 0.014, "unit": "µM"}, {"measurement": "NanoBRET Abs IC50", "setting": "[2]", "result": "> 20", "unit": "µM"}, {"measurement": "DLD1 reporter assay Abs IC50", "setting": "[3]", "result": "> 20", "unit": "µM"}]}
{"binder": "Ac-[αAllylPro]D[tBuAla][B5(3)]D[EtGA]AAFL[PyrS2″][3Thi][Bta]Q-NH2 (staple 1-4, 4-11; also: later-eluting HPLC isomer)", "note": "[I-973]", "values": [{"measurement": "DLD1 4% Abs IC50", "setting": "[4]", "result": 10.1, "unit": "µM"}, {"measurement": "NanoBRET Abs IC50", "setting": "[5]", "result": 19, "unit": "µM"}]}
{"binder": "Ac-[αAllylPro]D[tBuAla][B5(4)]DDAAFT[PyrS2″][Phe(2-Cl)][Bta]-Alaol (staple 1-4, 4-11; also: C-terminal Alao1 group, meaning not given here)", "note": "[I-1246]", "values": [{"measurement": "NanoBRET Abs IC50", "setting": "[6]", "result": 24.3, "unit": "µM"}, {"measurement": "DLD1 4% Abs IC50", "setting": "[7]", "result": 16.2, "unit": "µM"}]}
{"binder": "Ac-[αAllylPro]D[tBuAla][B5(4)]DDAAFL[PyrS2][3Thi][Bta][Thr(ol)] (staple 1-4, 4-11)", "note": "[I-1302]", "values": [{"measurement": "NanoBRET Abs IC50 (uM); B-cat-Halo / TCF4-Luc in HEK293 cells", "setting": "[8]", "result": 21.4, "unit": "µM"}, {"measurement": "DLD1 4% Abs IC50 (uM); TCF/LEF luciferase reporter in DLD1 cells", "setting": "[9]", "result": 4, "unit": "µM"}]}
{"binder": "Ac-[αAllylPro]D[tBuAla][B5(3)]D[Phe(3-COOH)]AAFL[PyrS2″][2F3MeF][Bta][MePpzAsn]-NH2 (staple 1-4, 4-11)", "note": "[I-1612]", "values": [{"measurement": "NanoBRET Abs IC50", "setting": "[10]", "result": 5.3, "unit": "µM"}, {"measurement": "DLD1 4% Abs IC50", "setting": "[11]", "result": 4, "unit": "µM"}]}
{"binder": "Ac-[αAllylPro]D[tBuAla][B5(16)]D[2COOHF″]AAFL[PyrS2(4)][3Thi][Bta]S-NH2 (staple 1-4, 4-11; not fully specified; reading uncertain)", "note": "[I-1667]", "values": [{"measurement": "DLD1 4% Abs IC50", "setting": "[12]", "result": 1.3, "unit": "µM"}]}
